Data on two molecules can be found in PMC10522771, “The C-terminal transactivation domain of MITF interacts promiscuously with co-activator CBP/p300” (Scientific Reports, 2023).

What all share (experiment): ITC; 400 µM TAZ1 or TAZ2 in the syringe injected into 16–30 µM MITF construct in the cell; 20 mM TRIS pH 8, 25 mM NaCl, 5 mM βME, 10 µM ZnCl2; 30 °C; single-binding-site fit; duplicate
What all share (settings): both partners purified

One assay addresses T1, MITF_(CTERM) (UniProt O75030-9 289-419).
T1 construct: numbers count on: the MITF-M isoform; 15N-labelled for the NMR titration; also called C-terminal MITF-M; MITF C-terminal region; source: E. coli BL21 (DE3), purified (Ni-NTA, TEV cleavage, Q-Sepharose)
T1 sequence (looked up): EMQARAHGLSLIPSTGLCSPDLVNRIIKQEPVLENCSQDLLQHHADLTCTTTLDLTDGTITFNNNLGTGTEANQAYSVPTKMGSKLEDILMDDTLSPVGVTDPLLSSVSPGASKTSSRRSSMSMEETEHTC

For another assay, the target named is T2, MITF_(ΔSer-rich) (UniProt O75030-9 289-419, Δ394–411).
T2 construct: numbers count on: the MITF-M isoform; The methods print Δ372–381 for this variant too; the legend, the results and the canonical numbers (Δ501–518) give Δ394–411; also called Δ394–411; deletion of the serine-rich region; source: E. coli BL21 (DE3), purified (Ni-NTA, TEV cleavage, Q-Sepharose)
T2 sequence (looked up): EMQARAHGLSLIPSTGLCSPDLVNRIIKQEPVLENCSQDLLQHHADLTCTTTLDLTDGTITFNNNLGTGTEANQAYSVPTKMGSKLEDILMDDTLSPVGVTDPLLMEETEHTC

The target of another assay is T3, MITF_(ΔThr-rich) (UniProt O75030-9 289-419, Δ334–345).
T3 construct: numbers count on: the MITF-M isoform; The methods print Δ334–354; the legend, the results and the canonical numbers (Δ441–452) give Δ334–345; also called Δ334–345; deletion of the threonine-rich region; source: E. coli BL21 (DE3), purified (Ni-NTA, TEV cleavage, Q-Sepharose)
T3 sequence (looked up): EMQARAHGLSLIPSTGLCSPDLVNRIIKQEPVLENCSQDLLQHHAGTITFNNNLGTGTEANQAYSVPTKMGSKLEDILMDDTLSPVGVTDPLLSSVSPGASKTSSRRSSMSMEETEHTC

The target in a further assay is T4, MITF_(ΔAcidic) (UniProt O75030-9 289-419, Δ372–381).
T4 construct: numbers count on: the MITF-M isoform; also called Δ372–381; deletion of the acidic region; source: E. coli BL21 (DE3), purified (Ni-NTA, TEV cleavage, Q-Sepharose)
T4 sequence (looked up): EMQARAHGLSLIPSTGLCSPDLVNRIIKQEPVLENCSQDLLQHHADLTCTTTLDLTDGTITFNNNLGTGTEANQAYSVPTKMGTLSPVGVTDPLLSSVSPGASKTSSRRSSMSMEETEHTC

B1: TAZ2 domain of CBP/p300 (domain or fragment)
chain: GDSRRLSIQRCIQSLVHACQCRNANCSLPSCQKMKRVVQHTKGCKRKTNGGCPICKQLIALCCYHAKHCQENKCPVPFCLNI
What is called Kd is the constant that tells how readily two partners part at equilibrium. A lower Kd goes with tighter binding. Consider B1, for which the Kd is 760 ± 50 nM in the assay with MITF_(CTERM), 2260 ± 90 nM with MITF_(ΔSer-rich), 410 ± 20 nM in the assay with MITF_(ΔThr-rich) and 7240 ± 700 nM in the assay with MITF_(ΔAcidic).

B2: TAZ1 domain of CBP/p300 (domain or fragment)
chain: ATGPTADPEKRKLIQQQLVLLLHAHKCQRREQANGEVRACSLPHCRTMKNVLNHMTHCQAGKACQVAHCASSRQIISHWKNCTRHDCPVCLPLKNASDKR
modifications: three structural Zn2+ ions expected; the paper does not state CBP or p300, species or limits (described in a cited paper); mouse CBP TAZ1 340-439 taken by convention
In the assay with MITF_(CTERM), B2 registered a Kd of 5000 ± 310 nM.
